From paper PMC7801473 (2021)

B1: NLRP1^CARD (M2H fusion) [human] / ASC^CARD (M2H fusion) [human] (parent complex)
chain 1: DAPQLLHFVDQYREQLIARVTSVEVVLDKLHGQVLSQEQYERVLAENTRPSQMRKLFSLSQSWDRKCKDGLYQALKETHPHLIMELWEKG
chain 2: AAKPGLHFIDQHRAALIARVTNVEWLLDALYGKVLTDEQYQAVRAEPTNPSKMRKLFSFTPAWNWTCKDLLLQALRESQSYLVEDLERS
B2: ASC^CARD (M2H fusion) [human] / NLRP1^CARD (M2H fusion) [human] (parent complex)
chain 1: B1 chain 2
chain 2: B1 chain 1

Variants of: B1
Assay: M2H (mammalian two-hybrid, luciferase); HEK293T cells; GAL(DBD)-ASC^CARD with VP16-NLRP1^CARD; luciferase normalized to Renilla; parent: 3; read off a plot

Row | Variant | response
1 | chain 1 DAPQLLHFVDQYREQLIARVTSVRVVLKKLHGQVLSQEQYERVLAENTRPSQMRKLFSLSQSWDRKCKDGLYQALKETHPHLIMELWEKG | ~0.77 fold of negative control
2 | chain 1 DAPQLLHFVDQYREQLIARVTSVEVVLDKLHGQVLSAEQYRRVLAENTRPSQMRKLFSLSQSWDRKCKDGLYQALKETHPHLIMELWEKG | ~1.7 fold of negative control
3 | chain 1 DAPQLLHFVDQYREQLIARVTSVEVVLDKLHGQVLSQEQYERVLAENTRPSQMRKLFSLSQSWDRKCKDGLYQALKETHPELIMELWEKG | ~0.98 fold of negative control

Other lines, results leading:

Row | response | Variant
4 | ~1.8 fold of negative control | chain 1 DAPQLLHFVDQYREQLIAAVTSVEVVLDKLHGQVLSQEQYERVLAENTAPSQMRKLFSLSQSWDRKCKDGLYQALKETHPHLIMELWEKG
5 | ~1.1 fold of negative control | chain 1 DAPQLLHFVDQYREQLIAAVTSVEVVLDKLHGQVLSQEQYERVLAENTRPSQMRKLFSLSQSWDRKCKDGLYQALKETHPHLIMELWEKG
6 | ~0.97 fold of negative control | chain 1 DAPQLLHFVDQYREQLIARVTSVEVVLDKLHGQVLSQEQYERVLAENTRPSQMRKLFSLSQSGKRKCKDGLYQALKETHPHLIMELWEKG
7 | ~1.5 fold of negative control | chain 1 DAPQLLHFVDQYREQLIARVTSVEVVLDKLHGQVLSQEQYERVLAENTRPSQMAKLFSLSQSWDRKCKDGLYQALKETHPHLIMELWEKG

Variants of: B2
Assay: M2H (mammalian two-hybrid, luciferase); HEK293T cells; GAL(DBD)-NLRP1^CARD with VP16-ASC^CARD; luciferase normalized to Renilla; parent: 2.1; read off a plot

Row | Variant | response
8 | chain 1 AAKPGLHFIDQHDAALIARVTNVEWLLDALYGKVLTDEQYQAVRAEPTNPSKMRKLFSFTPAWNWTCKDLLLQALRESQSYLVEDLERS | ~0.57 fold of negative control
9 | chain 1 AAKPGLHFIDQHRAALIARVTNVEWLLDALYGKVLTAAQYQAVRAEPTNPSKMRKLFSFTPAWNWTCKDLLLQALRESQSYLVEDLERS | ~1.4 fold of negative control
10 | chain 1 AAKPGLHFIDQHRAALIARVTAVRWLLDALYGKVLTDEQYQAVRAEPTNPSKMRKLFSFTPAWNWTCKDLLLQALRESQSYLVEDLERS | ~0.8 fold of negative control
11 | chain 1 AAKPGLHFIDQHRAALIARVTNVEWLLKALYGKVLTDEQYQAVRAEPTNPSKMRKLFSFTPAWNWTCKDLLLQALRESQSYLVEDLERS | ~0.78 fold of negative control

Other lines, results leading:

Row | response | Variant
12 | ~1.2 fold of negative control | chain 1 AAKPGLHFIDQHRAALIARVTNVEWLLDALYGKVLTDEQYQAVRAEPTNPSKMRKLFSFTPAGAWTCKDLLLQALRESQSYLVEDLERS
13 | ~1.1 fold of negative control | chain 1 AAKPGLHFIDQHRAALIAAVANVEWLLDALYGKVLTDEQYQAVRAEPTNPSKMRKLFSFTPAWNWTCKDLLLQALRESQSYLVEDLERS
14 | ~0.87 fold of negative control | chain 1 AAKPGLHFIDQHRAALIARVTNVEWLLDALYGKVLTDEQYQAVRAEPTNPSKMEKLFSFTPAWNWTCKDLLLQALRESQSYLVEDLERS
